Biological target: extracellular leucine-rich repeat (LRR) domain of OsER1 (OsER1^LRR) (rice (Oryza sativa)) (UniProt Q69SP5)
Test: ITC; about 0.3 mM OsEPFL peptide injected (24 x 1.5 uL) into 0.03 mM OsER1^LRR in the cell; ITC200, 25 °C, 10 mM Bis-Tris pH 6.0, 100 mM NaCl

Chain of UniProt Q69SP5 (Q69SP5 25-577): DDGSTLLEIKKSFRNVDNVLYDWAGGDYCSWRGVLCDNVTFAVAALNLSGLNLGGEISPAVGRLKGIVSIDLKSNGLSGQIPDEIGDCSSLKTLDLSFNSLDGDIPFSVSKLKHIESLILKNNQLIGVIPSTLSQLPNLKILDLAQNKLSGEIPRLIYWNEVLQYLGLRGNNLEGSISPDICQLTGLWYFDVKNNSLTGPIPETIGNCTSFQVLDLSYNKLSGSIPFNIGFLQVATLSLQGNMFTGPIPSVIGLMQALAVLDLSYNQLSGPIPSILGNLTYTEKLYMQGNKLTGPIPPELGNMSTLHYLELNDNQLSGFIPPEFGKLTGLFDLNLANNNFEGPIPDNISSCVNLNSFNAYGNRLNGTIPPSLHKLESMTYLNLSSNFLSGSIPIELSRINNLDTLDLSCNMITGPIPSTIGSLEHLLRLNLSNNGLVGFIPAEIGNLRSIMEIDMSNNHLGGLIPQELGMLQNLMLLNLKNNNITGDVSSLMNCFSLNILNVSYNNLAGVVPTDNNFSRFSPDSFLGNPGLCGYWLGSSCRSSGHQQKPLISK

predicted mature small peptide OsEPFL6
Kd: 1.35 µM

predicted mature small peptide OsEPFL7
Kd: 1.02 µM

predicted mature small peptide OsEPFL8
Kd: 18.7 µM

predicted mature small peptide OsEPFL9
Kd: 56.8 µM
